Bridge positions count the residues as written; N and C are the ends. Ends that are not written are not given here. PEG = not defined here
Columns and labels:
human mpl receptor = target: T1, human mpl receptor (Homo sapiens, UniProt P40238); assay: TPO in vitro bioassay, mitogenic assay in IL-3 dependent murine 32D cells; format: cell-based; conditions: for Relative Potency: in terms of EC50, numerals indicate approximately 1 log of activity
T1 construct: IL-3 dependent clone of murine 32D cells transfected with the full-length c-Mpl; expressed in transfected cells; host or cells: IL-3 dependent clone of murine 32D cells
T1 sequence (P40238 26-635): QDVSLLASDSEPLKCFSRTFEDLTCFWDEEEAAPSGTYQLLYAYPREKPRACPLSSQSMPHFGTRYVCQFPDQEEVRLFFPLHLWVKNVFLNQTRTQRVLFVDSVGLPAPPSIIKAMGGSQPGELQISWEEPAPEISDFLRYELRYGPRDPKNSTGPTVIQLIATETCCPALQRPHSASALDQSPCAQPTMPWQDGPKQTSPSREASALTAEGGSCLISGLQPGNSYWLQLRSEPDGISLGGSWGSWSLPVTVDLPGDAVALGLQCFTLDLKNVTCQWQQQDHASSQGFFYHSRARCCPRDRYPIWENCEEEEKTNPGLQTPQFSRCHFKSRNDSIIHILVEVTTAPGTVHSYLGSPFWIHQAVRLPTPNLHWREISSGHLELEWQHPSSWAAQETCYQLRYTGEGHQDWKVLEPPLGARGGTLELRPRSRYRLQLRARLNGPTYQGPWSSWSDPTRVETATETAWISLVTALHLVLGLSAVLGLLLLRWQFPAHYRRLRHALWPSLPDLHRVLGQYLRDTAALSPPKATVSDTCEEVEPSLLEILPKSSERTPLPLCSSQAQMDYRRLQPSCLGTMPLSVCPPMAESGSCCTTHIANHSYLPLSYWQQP
Experimental: Bioactivity assay. The TPO in vitro bioassay is a mitogenic assay utilizing an IL-3 dependent clone of murine 32D cells that have been transfected with human mpl receptor. This assay is described in greater detail in WO 95/26746. Cells are maintained in MEM medium containing 10% Fetal Clone II and 1 ng/ml mIL-3. Prior to sample addition, cells are prepared by rinsing twice with growth medium lacking mIL-3. An extended twelve point TPO standard curve is prepared, ranging from 3333 to 39 pg/ml. Four dilutions, estimated to fall within the linear portion of the standard curve, (1000 to 125 pg/ml), are prepared for each sample and run in triplicate. A volume of 100 μl of each dilution of sample or standard is added to appropriate wells of a 96 well microtiter plate containing 10,000 cells/well. After forty-four hours at 37° C. and 10% CO2, MTS (a tetrazolium compound which is bioreduced by cells to a formazan) is added to each well. Approximately six hours later, the optical density is read on a plate reader at 490 nm. A dose response curve (log TPO concentration vs. O.D.-Background) is generated and linear regression analysis of points which fall in the linear portion of the standard curve is performed. Concentrations of unknown test samples are determined using the resulting linear equation and a correction for the dilution factor. […]

c-Mpl = target: T2, c-Mpl (Homo sapiens, UniProt P40238); conditions: cited from earlier work
T2 sequence (P40238 26-491 limits assumed): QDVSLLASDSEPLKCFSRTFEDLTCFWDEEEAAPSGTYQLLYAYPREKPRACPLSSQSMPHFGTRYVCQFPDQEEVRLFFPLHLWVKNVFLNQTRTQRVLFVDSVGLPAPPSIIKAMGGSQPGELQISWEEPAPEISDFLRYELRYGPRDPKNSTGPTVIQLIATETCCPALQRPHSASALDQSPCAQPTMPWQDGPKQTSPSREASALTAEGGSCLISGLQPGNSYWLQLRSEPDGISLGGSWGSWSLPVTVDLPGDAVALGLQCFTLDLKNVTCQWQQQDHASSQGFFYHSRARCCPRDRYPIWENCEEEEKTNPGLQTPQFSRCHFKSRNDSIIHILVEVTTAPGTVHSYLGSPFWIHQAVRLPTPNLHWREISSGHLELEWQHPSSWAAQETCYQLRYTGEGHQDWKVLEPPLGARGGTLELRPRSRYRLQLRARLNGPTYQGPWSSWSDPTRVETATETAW

c-Mpl receptor = target: T3, c-Mpl receptor (Homo sapiens, UniProt P40238); conditions: cited from earlier work
T3 sequence (P40238 26-635): T1 sequence (P40238 26-635)

Normal female BDF1 mice = assay: platelets in mice, 7-day micro-osmotic pumps; format: in vivo
Experimental: Mice. Normal female BDF1 approximately 10-12 weeks of age.
Bleed schedule. Ten mice per group treated on day 0, two groups started 4 days apart for a total of 20 mice per group. Five mice bled at each time point, mice were bled a minimum of three times a week. Mice were anesthetized with isoflurane and a total volume of 140-160 μl of blood was obtained by puncture of the orbital sinus. Blood was counted on a Technicon H1E blood analyzer running software for murine blood. Parameters measured were white blood cells, red blood cells, hematocrit, hemoglobin, platelets, neutrophils.
Treatments. Mice were either injected subcutaneously for a bolus treatment or implanted with 7 day micro-osmotic pumps for continuous delivery. Subcutaneous injections were delivered in a volume of 0.2 ml. Osmotic pumps were inserted into a subcutaneous incision made in the skin between the scapulae of anesthetized mice. Compounds were diluted in PBS with 0.1% BSA. All experiments included one control group, labeled “carrier” that were treated with this diluent only. The concentration of the test articles in the pumps was adjusted so that the calibrated flow rate from the pumps gave the treatment levels indicated in the graphs.
Compounds. A dose titration of the compound was delivered to mice in 7 day micro-osmotic pumps. Mice were treated with various compounds at a single dose of 100 ug/kg in 7 day osmotic pumps. Some of the same compounds were then given to mice as a single bolus injection.

IEGPTLRQALAARA-GGGGGGGG-IEGPTLRQALAARA (IEGPTLRQALAARAGGGGGGGGIEGPTLRQALAARA) [peptide 16]
in vitro bioactivity in words (human mpl receptor): inactive | Relative Potency (human mpl receptor): 0.5

TMP-GPNG-TMP (IEGPTLRQWLAARAGPNGIEGPTLRQWLAARA) [peptide 13]
increase in potency as compared to the monomer (human mpl receptor): about 100 fold | Relative Potency (human mpl receptor): 3.0

IEGPTLRQWLAARA [TMP monomer, 14-residue TPO Mimetic Peptide (Cwirla et al.)]
Relative Potency (human mpl receptor): 1.0 | IC50 (c-Mpl): 2 nM | EC50 (c-Mpl receptor): 400 nM

TPO: native TPO protein, endogenous thrombopoietin
Relative Potency (human mpl receptor): 4.0

TMP-GGGNGSGG-TMP (IEGPTLRQWLAARAGGGNGSGGIEGPTLRQWLAARA) [compound 21]
in vitro bioactivity in words (human mpl receptor): activity comparable to that of the -(Gly)8- linked analog | Relative Potency (human mpl receptor): 4.0

peptide 14: Trp in each TMP monomer replaced with Cys, intramolecular disulfide bond between the two cysteines (IEGPTLRQCLAARAGGGGGGGGIEGPTLRQCLAARA; disulfide 9-31)
in vitro bioactivity in words (human mpl receptor): inactive | Relative Potency (human mpl receptor): 0.5

TMP-GGGC(PEG)GGGG-TMP (IEGPTLRQWLAARAGGGC(PEG)GGGGIEGPTLRQWLAARA; reading uncertain) [peptide 20]
in vitro bioactivity in words (human mpl receptor): even higher in vitro bioactivity as compared to their unpegylated counterparts | Relative Potency (human mpl receptor): 5.0 | activity compared with unpegylated rHu-MGDF (Normal female BDF1 mice; 10 μg/kg/day): about equally active as 100 μg/kg/day unpegylated rHu-MGDF | activity relative to maximum (Normal female BDF1 mice; 10 μg/kg/day): about 50% | dose of maximum effect (Normal female BDF1 mice; dose response, data not shown): 100 µg/kg/day | lowest dose at which activity could be seen (Normal female BDF1 mice; mouse, in vivo): 1 µg/kg/day

TMP-GGGKGGGG-TMP (IEGPTLRQWLAARAGGGKGGGGIEGPTLRQWLAARA) [peptide 17a]
Relative Potency (human mpl receptor): 4.0

IEGPTLRQCLAARA-GGGGGGGG-IEGPTLRQCLAARA (IEGPTLRQCLAARAGGGGGGGGIEGPTRLQCLAARA) [compound 15]
in vitro bioactivity in words (human mpl receptor): inactive | Relative Potency (human mpl receptor): 0.5

TMP-GGGK(PEG)GGGG-TMP (IEGPTLRQWLAARAGGGK(PEG)GGGGIEGPTLRQWLAARA; reading uncertain) [peptide 19]
in vitro bioactivity in words (human mpl receptor): even higher in vitro bioactivity as compared to their unpegylated counterparts | Relative Potency (human mpl receptor): 5.0

IEGPTLRQWLAARAARAALWQRLTPGEI [TMP C-C dimer, reference compound]
in vitro bioactivity in words (human mpl receptor): lower than that of the native TPO protein | Relative Potency (human mpl receptor): 3.5 | binding affinity (c-Mpl): 0.5 nM | EC50 (c-Mpl receptor): 0.1 nM

TMP-GGGCGGGG-TMP (IEGPTLRQWLAARAGGGCGGGGIEGPTLRQWLAARA) [peptide 18]
Relative Potency (human mpl receptor): 4.0

From patent US20110071077A1, “Thrombopoietic Compounds” (AMGEN INC., priority 2006, published 2011)
